Source: patent US20260234262A1

Target: Target 2 (canine examples 1 to 4) (canine)
Assay: SPR, Biacore T200; antibody captured on anti-canine coupled CM5 chip, antigen in solution, 1:1 fit

B1: 02F09R3-Fc (Fc fusion)
chain: QVQLVESGGGLVQAGGSLRLSCVASGSTFSNLVMAWYRQAPGKQREWVARISLAGNTIYADSVKGRFTISRDNAKNTVYLQMNSLKIEDTAVYYCSRGGVDWGQGTQVTVSSGPGGQVPKRENGRVPRPPDCPKCPAPEAAGGPSVFIFPPKPKDTLLIARTPEVTCVVVDLDPEDPEVQISWFVDGKQMQTAKTQPREEQFNGTYRVVSVLPIGHQDWLKGKQFTCKVNNKALPSPIERTISKARGQAHQPSVYVLPPSREELSKNTVSLTCLIKDFFPPDIDVEWQSNGQQEPESKYRTTPPQLDEDGSYFLYSKLSVDKSRWQRGDTFICYVMHEALHNHYTQESLSHSP
modifications: N-terminal pyroglutamate (PyroQ) observed by intact mass
  Kd: 0.213 nM
  koff: 6.24e-05 s⁻¹
  kon: 293000 M⁻¹ s⁻¹
